In experiment [1] the target is T1, Decoy c-Met (extracellular domain of human c-Met) (human, Glycoprotein. In cells it is cleaved by furin after residue 307 into disulfide-linked alpha and beta parts; written here as one chain.).
T1 construct: construct after Basilico et al. 2008; also called Decoy Met; monomeric Decoy Met
T1 chain: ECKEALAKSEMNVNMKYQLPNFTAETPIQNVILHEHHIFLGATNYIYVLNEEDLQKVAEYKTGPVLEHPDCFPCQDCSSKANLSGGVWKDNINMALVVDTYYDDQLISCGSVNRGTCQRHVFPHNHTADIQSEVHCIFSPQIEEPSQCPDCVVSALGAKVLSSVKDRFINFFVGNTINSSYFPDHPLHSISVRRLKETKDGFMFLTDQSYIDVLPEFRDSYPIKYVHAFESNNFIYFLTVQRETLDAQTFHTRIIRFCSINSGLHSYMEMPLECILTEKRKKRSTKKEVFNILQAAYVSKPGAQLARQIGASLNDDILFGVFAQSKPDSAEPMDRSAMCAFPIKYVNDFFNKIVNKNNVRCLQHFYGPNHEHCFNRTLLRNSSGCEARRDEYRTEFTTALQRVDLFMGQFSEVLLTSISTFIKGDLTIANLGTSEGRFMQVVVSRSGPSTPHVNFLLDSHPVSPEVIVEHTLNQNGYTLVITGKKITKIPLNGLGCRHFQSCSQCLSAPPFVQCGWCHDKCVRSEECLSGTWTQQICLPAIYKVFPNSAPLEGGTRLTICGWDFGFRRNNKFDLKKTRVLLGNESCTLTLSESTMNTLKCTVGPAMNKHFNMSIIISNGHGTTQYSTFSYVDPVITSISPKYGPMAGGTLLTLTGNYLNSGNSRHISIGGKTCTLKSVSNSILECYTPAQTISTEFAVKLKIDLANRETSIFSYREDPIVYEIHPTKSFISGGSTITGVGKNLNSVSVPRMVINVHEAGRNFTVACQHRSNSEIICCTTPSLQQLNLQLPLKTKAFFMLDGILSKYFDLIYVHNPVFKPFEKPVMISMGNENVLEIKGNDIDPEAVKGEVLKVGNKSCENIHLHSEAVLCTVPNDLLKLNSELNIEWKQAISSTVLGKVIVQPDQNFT
The experiment in a line: binding ELISA, human c-Met (Decoy).

Experiment [2] has as its target T2, human c-Met ECD (aa 25-932) with His tag (human, Glycoprotein. Furin cleavage after residue 307 gives disulfide-linked alpha and beta parts; written here as one chain.).
T2 construct: also called human c-Met (WT)
T2 chain: T1 chain
The experiment can be described thus: ELISA: 200 ng of recombinant c-Met ECD protein coated, mAb 1 h, HRP goat anti-human antibody, TMB, OD 620 nm. The protocol: 200 ng of the different chimeric recombinant cMet proteins were immobilized on maxisorb plates overnight at 4° C. After washing with PBS, the plates were blocked with 0.1% casein for 2 h at RT, before the mAbs were added and allowed to bind to the c-Met for 1 h at RT. After washing, HRP-conjugated goat anti-human antibody (diluted 1/5000, Jackson Labs) was added and incubated for 1 h at RT before additional washing and addition of TMB. The optical density at 620 nm was read and the values were represented in a graph against the concentration of mAbs.
In general terms: ELISA stands for enzyme-linked immunosorbent assay.

For experiment [3], the target named is human c-Met on cells (MKN-45, A549, HPAF, BxPC3) (human, UniProt P08581 25-1390). The experiment in a line: cell-based or functional assay.
In experiment [4] the target is llama-human c-Met chimera LS1 (aa1-98) (Llama glama; human). The experiment can be described thus: ELISA, mAb coated at 2 µg/ml, chimera added, streptavidin-HRP. An excerpt:
(§1) An ELISA was run to investigate the binding of the mAbs to the different chimeras.

Experiment [5] has as its target T3, llama-human c-Met chimera LS2 (aa1-199) (Llama glama; human).
T3 construct: as LS1
The experiment is described as above.
Text: as §1

Experiment [6] deals with T4, llama-human c-Met chimera LS3 (aa1-287) (Llama glama; human).
T4 construct: as LS1
The experiment is described as above.
Text: as §1

The target of experiment [7] is T5, llama-human c-Met chimera LS4 (aa1-348) (Llama glama; human).
T5 construct: as LS1
The description is as above.
Text: as §1

In experiment [8] the target is T6, llama-human c-Met chimera LS5 (aa1-448) (Llama glama; human).
T6 construct: as LS1
Described as above.
Text: as §1

For experiment [9], the target named is T7, llama-human c-Met chimera L18 (aa540-909) (human; Llama glama).
T7 construct: label probably LI8
The experiment is described as above.
Text: as §1

Experiment [10] concerns the target T8, llama-human c-Met chimera L19 (aa572-909) (human; Llama glama).
T8 construct: label probably LI9
Described as above.
Text: as §1

For experiment [11], the target named is T9, llama-human c-Met chimera L110 (aa608-909) (human; Llama glama).
T9 construct: label probably LI10
Described as above.
Text: as §1

Experiment [12] has as its target T10, llama-human c-Met chimera L111 (aa634-909) (human; Llama glama).
T10 construct: label probably LI11
The experiment is described as above.
Text: as §1

The target in experiment [13] is T11, recombinant dimeric c-Met (R&D systems, 358-MT/CF) (human, UniProt P08581 25-932).
T11 construct: bought protein; also called recombinant c-Met; Fc-Met; not shown: C-terminal Fc portion (captured with anti-human Fc) and a His tag (captured with anti-His)
The experiment can be described thus: competition ELISA: recombinant dimeric c-Met captured on the plate, mAb dilutions, then 25 ng/ml N-terminally biotinylated HGF as competitor, strep-HRP, 620 nm; % competition against the controls. The protocol: Competition with N-terminally biotinylated HGF for binding to immobilized c-Met was performed using an ELISA-based competition assay. Five μg/ml mouse anti-His antibodies (Serotech) was immobilized on a maxisorb plate and, after blocking with 1% casein in PBS for 2 h, 100 ng/ml recombinant dimeric c-Met was added and incubated for 1 h at room temperature. After washing, dilutions of the antibodies were added and allowed to bind to the captured c-Met for 30 minutes, before 25 ng/ml N-terminally biotinylated HGF (R&D systems, 294-HGN/CF) was added. Biotinylated HGF was incubated at room temperature for 1 h before washing. Horseradish-conjugated streptavidin (strep-HRP) was added and incubated for an additional hour. TMB was added and the plate read at 620 nm. An isotype control (hIgG1λ) was included as a control as well as murine 5D5 antibody. Competition was expressed as percentage competition as compared to the controls (strep-HRP only or hIgG1λ) and plotted against the concentration of antibodies. An IC₅₀ was calculated using GraphPad Prism (Table 10). Antibodies 13E6 and 20A11 only displaced HGF partially (about 50%), which may be related to the epitope these two mAbs recognize on the c-Met.

The target in experiment [14] is T12, HMet (human c-Met, control of Table 18) (human).
T12 chain: T1 chain
The experiment can be described thus: ELISA, mAb coated at 2 µg/ml, c-Met added, streptavidin-HRP.
Text: as §1

Experiment [15] concerns the target llama-human c-Met chimera LP6 (aa497-909) (human; Llama glama). The experiment can be described thus: ELISA, mAb coated at 2 µg/ml, chimera added, streptavidin-HRP.
Text: as §1

The target in experiment [16] is llama-human c-Met chimera LP7*(aa523-909), T737I (human; Llama glama). Described as above.
Text: as §1

Positions count from the first letter of the chain named.

B1: 13E6 mAb (antibody, human IgG1, V domains shown)
VH: QVQLQESGGDLVQPGGSLRLSCAASGFTFDDYVMNWVRQAPGKGLEWISAINWNGGSTYYAESMKGRFTISRDNAKNTLYLQMYSLQSDDTAVYYCVKDTVVSGNGYWGQGTQVTVSS
VL: QSVLTQPPSVSGTLGKTVTISCAGTSSDIGDYNYVSWYQQLPGTAPKLLIYDVNKRASGIPDRFSGSKSGNTASLSISGLQSEDEADYYCASYRSRNDYAFGGGTKLTVL
notes: human IgG1 constant domains and human C lambda
Turning to B1, in experiment [1], a half-maximal response (EC50) required 0.19 nM. Also, the EC50 (read off the curve) (in general, the concentration that produces a half-maximal response) in [2] was around 1 nM.

B2: 12G4 mAb (antibody, human IgG1, V domains shown)
VH: QLQLVESGGGMAQPGGSLKLSCAASGFTFDDYAMTWVRQAPGKGLEWLSTISWNDINTYYAESMKDRFTISRDNAKNTLYLQMNSLESEDTAVYYCAKRRDNYYGTSGEYDYWGQGTQVTVSS
VL: B1 VL with V3A, D31N, D52E, A57P, R96S, D98N, Y99V, A100V
notes: llama VH/V lambda fused to human IgG1 constant domains and human C lambda
In the case of B2, the midpoint of the response in experiment [1], the EC50, lay at 0.42 nM.

B3: 38H10 mAb (antibody, human IgG1, V domains shown)
VH: EVQLVQPGVELRNPGASVKVSCKASGYIFTMNSIDWVRQAPGQGLEWMGRIDPEDGGTKYAQKFQGRVTFTADTSTSTAYVELNSLRSEDTAVYYCARVDDYYLGYDYWGQGTQVTVSS
VL: EIVMTQSPSSVTASAGEKVTINCKSSQSVLWRSNQKNYLAWYQQRLGQSPRLLISWASIRESGVPDRFSGSGSTTDFTLTISSFQPEDAAVYYCQQGYSFPYTFGSGTRLEIK
notes: human IgG1 constant domains and human C kappa
On to B3, for which, in [3], the “antibody-induced proliferation of BxPC3 cells (agonism)” value (from here on “antibody-induced proliferation”) is < 20 % of the proliferation obtained with 75 ng/ml HGF. Also, the 50% effective concentration (EC50) (usually the concentration that produces a half-maximal response) in experiment [1] was 0.19 nM.

B4: 48A2 mAb (antibody, human IgG1, V domains shown)
VH: B3 VH
VL: DIVMTQTPTSVTASAGDKVTINCKSSQSVLFSSNQKNYLAWYQQRLGQSPRLLIYWASIRESGVPDRFSGSGSATDFTLTISNFQPEDAAVYYCQQGYSFPYSFGSGTRLEIR
notes: VL-shuffled variant of 38H10; human IgG1 and C kappa
With B4, the EC50 in [4] was 0.031 µg/mL; in [5], 0.034 µg/mL; in [6], 0.05 µg/mL; in [7] it was 0.07 µg/mL; in experiment [8], 0.05 µg/mL; in [9] it was above 0.04 µg/mL. Also, the half-maximal effective concentration (EC50) in experiment [10] was above 0.04 µg/mL; in experiment [11] it was above 0.04 µg/mL; in experiment [12] it was 0.042 µg/mL.

B5: murine 5D5 antibody (antibody, V domains shown)
VH: QVQLQQSGPELVRPGASVKMSCRASGYTFTSYWLHWVKQRPGQGLEWIGMIDPSNSDTRFNPNFKDKATLNVDRSSNTAYMLLSSLTSADSAVYYCATYGSYVSPLDYWGQGTSVTVSS
VL: DIMMSQSPSSLTVSVGEKVTVSCKSSQSLLYTSSQKNYLAWYQQKPGQSPKLLIYWASTRESGVPDRFTGSGSGTDFTLTITSVKADDLAVYYCQQYYAYPWTFGGGTKLEIK
On to B5, for which the “IC50 (read off the curve)” value in [13] was around 0.7 nM.

B6: 36C4 mAb (antibody, human IgG1, V domains shown)
VH: QVQLVESGPGLVKPSQTLSLTCAVSGGSITTNYYYWSWIRQSPGKGLEWMGVIAYDGSTDYSPSLKSRTSISRDTSKNQFSLQLSSVTPEDTAVYYCARDVRVIATGWATANALDAWGQGTLVTVSS
VL: QSVLTQPPSVSGSPGKTVTISCAGTSSDVGYGNYVSWYQQLPGTAPKLLIFAVSYRASGIPDRFSGSKSGNTAFLTISGLQSEDEADYYCASYRSSNNAAVFGGGTHLTVL
notes: as for B1
On to B6, for which the “antibody-induced proliferation” value in experiment [3] was < 20 % of the proliferation obtained with 75 ng/ml HGF. Further, the EC50 in [1] is 0.13 nM; in experiment [14] it was 0.06 µg/mL; in experiment [4] it was 0.068 µg/mL; in experiment [15] it was 0.05 µg/mL; in experiment [16], 0.055 µg/mL; in experiment [9], 0.047 µg/mL. The results for the concentration giving a half-maximal response (EC50) in [10], in experiment [11] and in [12] were 0.047 µg/mL, 0.047 µg/mL and 0.045 µg/mL, respectively. In addition, the “EC50 (read off the curve)” value in experiment [2] was around 0.6 nM.

B7: 20A11 mAb (antibody, human IgG1, V domains shown)
VH: QVQLVESGGGLVQPGGSLRLSCAASGFTFDDYAMSWVRQAPGKGLEWVSAISWNGSSTYYAESMKGRFTISRDNAKNTLYLQMNSLKSEDTAVYYCAKDLIGSHDYWGQGTQVTVSS
VL: QAVLTQPPSVSGTLGKTLTISCAGTSSDVGYGNYVSWYQQLPGTAPKLLIYAVSTRASGIPDRFSGSKSGNTASLTISGLQSEDEADYYCASYRSSNNYAFGAGTKLTVL
notes: as for B1
With B7, in experiment [1], the concentration giving a half-maximal response (EC50) was 4.3 nM. That is a single-digit nanomolar value.

B8: 40B8 mAb (antibody, human IgG1, V domains shown)
VH: EVQLVQPGAELRNPGASVKVSCKASGYTFTNYVIDWVRQAPGQGLEWMGRIDPENGGTRYAQKFQGRVTFTADTSTSTAYVELSNLRSEDTAVYYCARLEDYELAYDYWGQGTQVTVSS
VL: DIVMTQTPSSVTASAGEKVTINCKSSQSVLLSSNQKNYLAWYQQRLGQSPRLLIYWASTRESGVPDRFSGSGSTTDFTLTISSFQPEDAAVYYCQQGVSFPLTFGQGTKVELK
notes: as for B3
Take B8: the “antibody-induced proliferation” value in experiment [3] was < 20 % of the proliferation obtained with 75 ng/ml HGF. This molecule yielded an EC50 in [1] of 0.14 nM. In addition, in [13], the “IC50 (read off the curve)” value was around 0.07 nM.
